From the DeepSol protein solubility set

Experiment: soluble on expression in E. coli; label from the status in PepcDB or PDB records

Q: For “MPVTEVGSLPELNNILERSDANRLIIIDFFANWCGPCRMISPIFEQFSAEYGNATFLKVNCDVARDIVQRYNISAMPTFIFLKNRQQVDMVRGANQQAIAEKIRQHYSPTPANPNAASDSEKRFLEQFVKCSNVPRSYQDEVFKALARSVMPEELVGRAMTEGPRDEKAILKDLLHWFKTQFFTWFDRPTCPKCTLKCSTDGLQGTPTREEQKEGGASRVEVYICDGCNTEMRFPRYNNPAKLLQTRTGRCGEWANCFGLLLAALNLESRFIYDTTDHVWNEVYLLAEQRWCHVDPCENTMDRPLLYTRGWGKTLGYCIGYGSDHVVDVTWRYIWDSKKLVTQRNEVRQPVFENFLSKLNSRQAEGQTEPRKRELAVRRVCELMEMMAQEAKNHKIGWEKIGDDLGGRITGSEEWRRERGELGESGPKLLAEPIKLAPPTGPAQNYLEFNYDVITDTYSQPPEIGFSAQAFELENVQRVEETDWNMTYLCRKRGDAPGNISWHFDLKSLKKSIEKIEIRMAGIQKFEKGKAMAIACLGDSCMRLPIDCSALTIEDPKNAEILKITATLSGGEGAIGFQQAQIFRTELKRGGGARTESFSVKIWMKN”, which “soluble on expression in E. coli” value is on record?
A: not soluble

Q: For “MPYRKYREKKYETKYREAFKLFQEKIGITFTDEKLLIQAFTHSSYVNEHRKKPHEDNERLEFLGDAVLELTVSQYLFQKYPTMSEGELTKLRAAIVCEPSLVRFANELSFGSLVLLGKGEEMTGGRERPALLADVFEAFIGALYLDQGLETVWGFLKEIVYPKINEGAFSHVMDYKSQLQELIQRDGSGNIEYQILQEKGPAHNREFVSRVTLNNVALGLGSGKSKKEAEQQAAAEALKKLKEQL”, which “soluble on expression in E. coli” value is on record?
A: soluble

Q: For “MQAIAIDQFSEPEETQVEQVENPDRNEAGYEVCNQSGENLSVAIAYFDTSIDSYRSEGWWNLDQSKCQFFPNLLDSVDEVYVFAESDQTLWSGDFPFCMQEDAFEYPDANRDRCPSPAYSKGFLKVEVGDAKTWTTNLTPSQLEHHHHHH”, which “soluble on expression in E. coli” value is on record?
A: not soluble

Q: Which “soluble on expression in E. coli” value does the source give for “MQCGLLKHRLLKFFSTEAIMTTNQRSIKAPQTVVVKLGTSVLTGGTLALDRAHMVELARQCAELKKQGHSVVIVTSGAIAAGREHLGYPALPNAISSKQLLAAVGQSRLIQVWESLFAIYGIKIGQMLLTRADLDDRERFLNARDTINALVENGIVPVVNENDAVATNEIKVGDNDNLSALVGILCGADKLLLLTDQKGLFTADPRKDPNAQLIKEVTTIDDTLRKIAGGSGTTLGTGGMATKLQAADIARRAGIEVIIAAGRAPNVIFDSLSDEPQGTRFLALEEALENRKRWILAGPAASGDIVIDDGAVKAVQTKGSSLLAKGVVRVQGQFARGEVVRVLDKQSHLIARGIAAYSNDELAQIAGKHSKEIIDILGYDHGSEVIHRDDMVVIQE” here?
A: not soluble

Q: For “MQEAIITSTVDLTSGGCNACGLVEDTVYTLAMNGVDIPLDGLTVAHLVSAIVARNGFKQELQMDMLDDEYILYRKEDTTVTFKEAYNHLSYDNGSEKIQSKNKLEDLPKLFEQVNQILTTVFGIGTVNFIIE”, which “soluble on expression in E. coli” value is on record?
A: not soluble

Q: Which “soluble on expression in E. coli” value does the source give for “MQEGYREYRDIHARLNLPLLETGALVAAWSDEDLARLPAIVEQAHGNGVDDVRQVGRDEVLALEPQLAGNVLGAVRVPGEHLVDPWSAPLAYLQQALAHGAEACFDVEVLDGAFDGGEWLLHTRRGDLRASQVINCAGLFGDQLEQRLLGAASFAIHPRKGQFVVFDKAAAALLRHILLPVPNERTKGVVFTRTVFGNLLAGPTAEEQDDREQARVDSDTLQRLIDAAVERIPGLRGMPVTATYAGLRPASEKKEYRIRQVDGRNWISVGGIRSTGLTAALGIARHVYRLYQGERFHEAVREPLWPQVPNLAEHLPRDWQRPGYDEIVCHCEMVTRREILAALEGPLPAGDFGGLKRRTRACMGRCQGFYCNARVAELSAGRLAQPLATGSCHEHH” here?
A: not soluble

Q: Which “soluble on expression in E. coli” value does the source give for “MQEILIPLKEKNYKVFLGELPEIKLKQKALIISDSIVAGLHLPYLLERLKALEVRVCVIESGEKYKNFHSLERILNNAFEMQLNRHSLMIALGGGVISDMVGFASSIYFRGIDFINIPTTLLAQVDASVGGKTGINTPYGKNLIGSFHQPKAVYMDLAFLKTLEKREFQAGVAEIIKMAVCFDKNLVERLETKDLKDCLEEVIFQSVNIKAQVVVQDEKEQNIRAGLNYGHTFGHAIEKETDYERFLHGEAIAIGMRMANDLALSLGMLTLKEYERIENLLKKFDLIFHYKILDLQKFYERLFLDKKSENKTIKFILPKGVGAFEVASHIPKETIIKVLEKWH” here?
A: soluble

Q: For “MQEISFRNDILPLKDKLFRLALRITLDRAEAEDVVQDTMIRVWNKRDEWSQFESVEAYCLIVAKNLAIDRSQKKEAQNVEITPEMEEEPDANSPYDQLVHDEKMNIINRLVNELPEKQRLIMQLRDIEGESYKKIATLLNLTEEQVKVNLFRARQKVKQRYLEIDEYGL”, which “soluble on expression in E. coli” value is on record?
A: not soluble

Q: Which “soluble on expression in E. coli” value does the source give for “MQENSPLLQLQNVGYLAGDAKILNNINFSLRAGEFKLITGPSGCGKSTLLKIVASLISPTSGTLLFEGEDVSTLKPEIYRQQVSYCAQTPTLFGDTVYDNLIFPWQIRNRQPDPAIFLDFLERFALPDSILTKNIAELSGGEKQRISLIRNLQFMPKVLLLDEITSALDESNKHNVNEMIHRYVREQNIAVLWVTHDKDEINHADKVITLQPHAGEMQEARYELA” here?
A: not soluble

Q: For “MQEQLEKMFFLSAEFVEAVDARGMTEREKNVFFDTELFCKRYVKEVRPGEIGCTLSHQKCYRKLVESRDKYALILEDDIVIRHNIDTLVPEIEKLLNTDEPRVILLSGWYWYLGTKTIKQHYCLARVYDAFLTHAYIINREAASLLIEQRPFITADDWFYIRKKGVKLYAVLPHLLDQDWSGEYPTSINQEEKKRCPGLWKRKIEICFHSLLLKFLYIIKRFEKALEHHHHHH”, which “soluble on expression in E. coli” value is on record?
A: not soluble

Q: With “MQFFISSAILFSYAFCQSIPNVILTGEPRVVARRILNVDMKAAQQLALPDDQQHVRYQVNVVRNQENPSDSTYLTGERTPVTVYRRILRPARITFTGDGVITDSWQGTSDAVEMESWTLNRRPTIDGSFVQPTQNQQGAFH” as the sequence, how does the “soluble on expression in E. coli” value read?
A: not soluble

Q: For “MQHHGVTKCNITCSKMTSKIPVALLIHYQQNQASCGKRAIILETRQHRLFCADPKEQWVKDAMQHLDRQAAALTRNG”, which “soluble on expression in E. coli” value is on record?
A: soluble

Q: With “MQIKAGLIWMNGAFVPQEEAKTSVLSHALHYGTSVFEGIRAYETAKGPAIFRLKEHVKRFYNSAKVLRMEIPFAPEELEEAIKEVVRRNGYRSCYIRPLAWMGAKALGVNPLPNNPAEVMVAAWEWGAYLGEEAVRKGARLITSSWARFPANVMPGKAKVGGNYVNSALAKMEAVAAGADEALLLDEEGYVAEGSGENLFFVRDGVIYALEHSVNLEGITRDSVIRIAKDLGYEVQVVRATRDQLYMADEVFMTGTAAEVTPVSMIDWRPIGKGTAGPVALRLREVYLEAVTGRRPEYEGWLTYVNGQ” as the sequence, how does the “soluble on expression in E. coli” value read?
A: soluble

Q: With “MQIKLANPRGFCAGVDRAIEIVNRALEVFGPPIYVRHEVVHNKFVVEDLRSRGAIFVEELEQVPDDVIVIFSAHGVSQAVRTEAAGRGLKVFDATCPLVTKVHIEVARYSRDGRECILIGHAGHPEVEGTMGQYDAVNGGAIYLVEDEADVASLEVRNPESLAFVTQTTLSMDDTSRVIDALRKRFPAIGGPRKDDICYATQNRQDAVKQLADECDVVLVVGSPNSSNSNRLRELAERMATPAYLIDGAEDMQKGWFDGVERIGITAGASAPEVLVRGVIQQLQAWGATGADELAGREENITFSMPKELRVKSLLLEHHHHHH” as the sequence, how does the “soluble on expression in E. coli” value read?
A: not soluble

Q: For “MQIPHGELRTLTYHSNALKSERQMYVWTPPGYSESSKPLPVLYFYHGFGDTGASAVVQGRIPQMMDNLLAEKKIEPMLVVIPDTETDVPGIIPEEYPPQERRKVFYPRNALAADRELIHDIIPAIGKRFNVRQDANGRALAGLSQGGYQALVSGMSHLDHFGWLATFSGVTTETVPNMAVAAQLERPEQINQQLKNLTVVIGETDNITGKDIAGLKTMLEQKNIRFDYTHYPNLGHEMDVWRPAYSEFVQKLFKLEHHHHHH”, which “soluble on expression in E. coli” value is on record?
A: not soluble

Q: Which “soluble on expression in E. coli” value does the source give for MQKHFDCVLKHLLSRCCARRRESSFRPAPAGKVFLD here?
A: not soluble

Q: Which “soluble on expression in E. coli” value does the source give for “MQKKSIYVAYTGGTIGMQRSDNGYIPVSGHLQRQLALMPEFHRPEMPDFTIHEYAPLIDSSDMTPEDWQHIANDIQQNYDLYDGFVILHGTDTMAFTASALSFMLENLAKPVIITGSQIPLAELRSDGQTNLLNALYLAANHPVNEVSLFFNNQLFRGNRTTKAHADGFDAFASPNLSVLLEAGIHIRRQSSVVSPTSNGPLIVHRITPQPIGVVTIYPGISGAVVRNFLLQPVKALILRSYGVGNAPQKAELLDELKNASDRGIVVVNLTQCISGSVNMGGYATGNALAQAGVISGFDMTVEAALTKLHYLLSQSLSPNEIRQLMQQNLRGELTDTQ” here?
A: soluble

Q: For “MQKLKQQVFDANMDLPRYGLVTFTWGNVSAIDRERGLVVIKPSGVAYETMKVDDMVVVDMDGKVVEGRYRPSSDTATHLALYQRYPSLGGVVHTHSTHATAWAQAGMAIPALGTTHADYFFGDIPCTRALSEEEVQGEYELNTGKVIIETLGEVEPLHTPGIVVYQHGPFAWGKDAHDAVHNAVVMEEVARMAWIARGINPALNPIDDYLMNKHFMRKHGPNAYYGQK”, which “soluble on expression in E. coli” value is on record?
A: not soluble

Q: For “MQKRVKEGPFTTEWIDLYLEEAVRKGIKEVGIVDHLYRFHEAKGYYEKYVDISDSKLGRIQKEWLDQVKVVSLYDFTKAIEEAKERWGKRGVTLKLGIEADYFIGCEGELKELLALGDFDYVIGSVHFLNGWGFDNPDTKEYFEVHDLRALYDMFFKTVESAIRTELFDIIAHLDNIKVFNYRLDENEQLSYYEEIACALVETNTATEINAGLYYRYPVREMCPSPLYLQVLAKYGVPITISSDAHYPNDLGNYVQENIQTLRAHGVTQVATFTKRARVMRSLEEEVTNSK”, which “soluble on expression in E. coli” value is on record?
A: not soluble

Q: Which “soluble on expression in E. coli” value does the source give for “MQKVCEKRIDSVVASAVEGSGMFYAVRFEPPPSKTCFDVTLKTYGPPYTEYIVTVAIPPKFPFSPPAITCKTDKNMKFLFLEENQWKPSTGIVAVLIEACSVISRRDLVPRAPVLPRIRPPQARTPTSASPAKSPQKAD” here?
A: not soluble

Q: For “MQLDRVDRKILNELYNDSRLSMRELAKRVNLSAPSTSERVRKLESEGVIQKYTIDIDYKKAGLVLDCILEITLKNGDTTRMQQFIQSYPSASFCYRVTGSLCYIVKISVPSLVELEEFINDVSSYATTVSHIVLSEVSLTPDIEHIFPED”, which “soluble on expression in E. coli” value is on record?
A: not soluble

Q: For “MQLQKLVNMFGGDLTRRYGQKVHKLTLHGGFSCPNRDGTIGRGGCTFCNVASFADEAHEHRSIAEQLAHQANLVNRAKRYLAYFQAYTSTFAEVQVLRSMYQQAVSQANIVGLCVGTRPDCVPDAVLDLLCEYKDQGYEVWLELGLQTAHDKTLHRINRGHDFACYQRTTQLARQRGLKVCSHLIVGLPGEGQAECLQTLERVVETGVDGIKLHPLHIVKGSIMAKAWEAGRLNGIELEDYTLTAGEMIRHTPPEVIYHRISASARRPTLLAPLWCENRWTGMVELDRYLNEHGVQGSALGRPWLPPTELEHHHHHH”, which “soluble on expression in E. coli” value is on record?
A: not soluble

Q: Which “soluble on expression in E. coli” value does the source give for “MQMSMLTRLHYFNCVVETGSISKASRIFDVQPSSISRQLTALEKELGVLLLKRTSRNIGLTEAGQTYYKYSQKIVSDLDEARCAVNDLQQKPKGNLKVSMAVGFAECCILPMIPTFTKLYPEINLELEMTGRVVDLVEENVDVAIRTGRLRDSNLIALKLTSNNFLLCASPQYITEHGTPKSPFNLTDFECIRYEYAGWRDWYLMNDKPTKLTIKSGLTVRSINGQKQLILNHAGLALMPKWSVINELDNGTLVQVLEQNIFSPYESMSSTYAIYLKRELISPKVRVFIDFIKDHIDYNS” here?
A: not soluble
